According to patent publication US20210324359A1, “USE OF GRAM-NEGATIVE LYSIN-ANTIMICROBIAL PEPTIDE (AMP) POLYPEPTIDE CONSTRUCTS IN TREATING ENDOCARDITIS” (priority 2020, published 2021):

Key:
P. aeruginosa = assay: MIC, modified CLSI broth microdilution in CAA medium without or with […] human serum (Table 4); assay type: cell-based, Pseudomonas aeruginosa; conditions: for CAA MIC: CAA medium, no human serum; for CAA/HuS MIC: CAA supplemented with […] human serum; for effect of the structural modification on activity (as assessed by MIC) versus the parent lysin: CAA with and without human serum, parent GN316 or GN37; for CAA/HuS MIC: CAA supplemented with 2.5% human serum
Excerpt: 2015. […] Clinical and Laboratory Standards Institute, Wayne, Pa.

[1] = test system: carbepenam-resistant clinical isolate WC-453; assay: MIC in CAA without or with 25% human serum (Table 5); assay type: cell-based, Pseudomonas aeruginosa; parameters: CAA MIC: unit not given here; conditions: for CAA/HuS MIC: CAA supplemented with 25% human serum
Method: MIC values were determined using a modification of the standard broth microdilution reference method defined by the Clinical and Laboratory Standards Institute (CLSI), CLSI. […] Methods for Dilution Antimicrobial Susceptibility Tests for Bacteria That Grow Aerobically; Approved Standard-10th Edition. Clinical and Laboratory Standards Institute, Wayne, Pa.

[2] = test system: P. aeruginosa strain WC-453; assay: Time-kill assay in HEPES or CAA with 25% human serum (Tables 7, 8); assay type: cell-based, Pseudomonas aeruginosa; conditions: for HEPES (Log10 CFU/mL), 1 hr / HEPES (Log10 CFU/mL), 3 hr: 25 mM HEPES pH 7.4; for HEPES (Log10 CFU/mL), 1 hr / HEPES (Log10 CFU/mL), 3 hr / CAA/HuS (Log10 CFU/mL), 1 hr / CAA/HuS (Log10 CFU/mL), 3 hr: lysin 10 μg/ml, WC-453; for CAA/HuS (Log10 CFU/mL), 1 hr / CAA/HuS (Log10 CFU/mL), 3 hr: CAA + 25% human serum
Method: Exponential phase bacteria were then pelleted and resuspended in 1/5 culture volume of 25 mM HEPES, pH 7.4 before a final adjustment to an optical density corresponding to a McFarland value of 0.5. […] All treatments were incubated at 37° C. with aeration. At time points before the addition of lysin (or buffer control) and at 1 hour and 3 hours intervals thereafter, culture samples were removed for quantitative plating on CAA agar plates.

[3] = test system: biofilms formed by P. aeruginosa strain ATCC 17646; conditions: strain ATCC 17646 biofilm
Method: Biofilms are then washed and treated with e.g., a 2-fold dilution series of the lysin in TSBg at e.g., 37° C. for 24 hours. After treatment, wells are washed, air-dried at e.g., 37° C. and stained with e.g., 0.05% crystal violet for 10 minutes.

Molecule	CAA MIC (P. aeruginosa) [µg/mL]	CAA/HuS MIC (P. aeruginosa) [µg/mL]	effect of the structural modification on activity (as assessed by MIC) versus the parent lysin (P. aeruginosa)	activity in CAA supplemented with human serum (25%) [1]	CAA MIC [1]	CAA/HuS MIC [1]	HEPES (Log10 CFU/mL), 1 hr [2] [Log10 CFU/mL]	HEPES (Log10 CFU/mL), 3 hr [2] [Log10 CFU/mL]	CAA/HuS (Log10 CFU/mL), 1 hr [2] [Log10 CFU/mL]	CAA/HuS (Log10 CFU/mL), 3 hr [2] [Log10 CFU/mL]	MBEC [3] [µg/mL]	bactericidal activity (CFU decrease of 3-Log10, 3 hours after the addition of lysin) ([2]; 10 μg/mL, enumerated lysins in CAA/HuS, general statement for HEPES and CAA/HuS)
GN243: lysin-AMP construct: PP moiety, IGEM linker and TI15 peptide C-terminal to GN37 lysin (SEQ ID NO: 16) (protein) MTYTLSKRSLDNLKGVHPDLVAVVHRAIQLTPVDFAVIEGLRSVSRQKELVAAGASKTMNSRHLTGHAVDLAAYVNGIRWDWPLYDAIAVAVKAAAKELGVAIVWGGDWTTFKDGPHFELDRSKYRKKTRKRLKKIGKVLKWIPPGGGSGGGGSGGGSTRKRLKKIGKVLKWI	32000	500	very strong activity in the presence of human serum	–	–	–	–	–	–	–	–	–
GN178: lysin-AMP construct: Esculentin fragment and IGEM linker N-terminal to GN146 lysin (SEQ ID NO: 6) (protein) MPPIFSKLAGKKIKNLLISGLKGGSGSGSGSGSPRTSQRGIDLIKSFEGLRLSAYQDSVGVWTIGYGTTRGVTRYMTITVEQAERMLSNDIQRFEPELDRLAKVPLNQNQWDALMSFVYNLGAANLASSTLLDLLNKGDYQGAADQFPHWVNAGGKRLDGLVKRRAAERALFLEPLS	8000	4000	–	active	8	1	–	–	–	–	–	–
GN328: lysin obtained from Pseudomonas protegens (SEQ ID NO: 220) (protein, listed as Pseudomonas protegens) MNTLRHGDRSQAVRSLQKNLNSHGAILVVDGDYGDATEAAVRAYQLKAGLVVDGIAGEKTQTSLVGGDCALLLKNADLVSAAQRLDLPLASVYAVNEVESNGKGFFANGKPAILFERHIMYRQLKTPRYPGDDPAELKRHADELAAQYPAIINPNPGGYAGGPAEHQRLATARLIDDTAALESASWGAFQIMGFHWKRLGYASVQDFVTAMSASEPRQFEAFVRFIETDPALHKALKARKWSDFARQYNGPNYQRNLYDTKLQRAYERHSACSCGQEVPA	–	–	–	active	8	2	–	–	–	–	–	–
GN223: lysin-AMP construct: RPP moiety, IGEM linker and amurin peptide Gkh2 C-terminal to GN37 lysin (SEQ ID NO: 12) (protein) MTYTLSKRSLDNLKGVHPDLVAVVHRAIQLTPVDFAVIEGLRSVSRQKELVAAGASKTMNSRHLTGHAVDLAAYVNGIRWDWPLYDAIAVAVKAAAKELGVAIVWGGDWTTFKDGPHFELDRSKYRPPGGGSGGGGSGGGSSKKASRKSFTKGAVKVHKKNVPTRVPMRGGIRL	32000	2000	very strong activity in the presence of human serum	–	–	–	–	–	–	–	–	–
GN218: lysin-AMP construct: IGEM linker and RI12 antimicrobial peptide C-terminal to GN37 lysin (SEQ ID NO: 10) (protein) MTYTLSKRSLDNLKGVHPDLVAVVHRAIQLTPVDFAVIEGLRSVSRQKELVAAGASKTMNSRHLTGHAVDLAAYVNGIRWDWPLYDAIAVAVKAAAKELGVAIVWGGDWTTFKDGPHFELDRSKYGGGSGGGGSGGGSRLKKIGKVLKWI	8000	1000	very strong activity in the presence of human serum	active	8	1	–	–	–	–	–	–
GN239: lysin-AMP construct: IGEM linker and RI18 peptide C-terminal to GN37 lysin (SEQ ID NO: 14) (protein) MTYTLSKRSLDNLKGVHPDLVAVVHRAIQLTPVDFAVIEGLRSVSRQKELVAAGASKTMNSRHLTGHAVDLAAYVNGIRWDWPLYDAIAVAVKAAAKELGVAIVWGGDWTTFKDGPHFELDRSKYGGGSGGGGSGGGSRKKTRKRLKKIGKVLKWI	4000	250	very strong activity in the presence of human serum	–	–	–	–	–	–	–	–	–
GN80: dispersin B-like molecule (SEQ ID NO: 214) (protein, listed as Staphylococcus sciuri) MENIQKGITVDIARKSYSLETLKTIVKHIHDHNGQYLQLHFSDDENYAIESEYFDRKSFSNPYYLTKTEVKSLIEYSNDLNVMVIPDMDFPSHSKAFLSLIKQNDKSLYQEIISDYSDNTLDFFSNRKAVDVTNRQIDEITELFKQPQFAEQQRIVLGGDEVAGGGAHQNSFIEYMNQIGDYAFQQGYEPQMWNDMVTHEGVKSLNNHYSILYWKQNEDNKSNLTVEDFDKYYFDVYNYNYYSLYFLPSKQFSQDDINEQAEYIGWAYAYNKFYYNKNPYSEVNSQNVKGSALSFWGEHATDMTQEELINQEVPLIKVYFNLKK	–	–	–	–	–	–	7.7	6.7	6.7	7.0	0.125	–
GN217: GN37 lysin with amino acid substitution R79H (SEQ ID NO: 8) (protein) MTYTLSKRSLDNLKGVHPDLVAVVHRAIQLTPVDFAVIEGLRSVSRQKELVAAGASKTMNSRHLTGHAVDLAAYVNGIHWDWPLYDAIAVAVKAAAKELGVAIVWGGDWTTFKDGPHFELDRSKYR	4000	125	improves its potency over GN37 both in the absence and presence of human serum	–	–	–	–	–	–	–	0.5	–
GN14: lysin obtained from Pseudomonas phage Lull (SEQ ID NO: 124) (protein) NNELPWVAEARKYIGLREDTSKTSHNPKLLAMLDRMGEFSNESRAWWHDDETPWCGLFVGYCLGVAGRYVVREWYRARAWEAPQLTKLDRPAYGALVTFTRSGGGHVGFIVGKDARGNLMVLGGNQSNAVSIAPFAVSRVTGYFWPSFWRNKTAVKSVPFEERYSLPLLKSNGELSTNEA	–	–	–	active	>128	32	<3.7	<3.7	5.7	<3.7	–	bactericidal activity
GN65: Lysin GN65, used as control (protein, (1)..(264) GN316 lysin) MAILKIGSKGLEVKNLQTSLNKIGFNLVADGIFGKATDNAVRAVQAGAGLVVDGIAGPKTMYAIRNAGESHQDHLTEADLIDAARELSVDLASIKAVNQVESRGTGFTKSGKIKTLFERHIMYKKLNAKFGQAKANALAQLYPTLVNAKAGGYTGGDAELERLHGAIAIDKDCAYESASYGLFQIMGFNCVICGYDNAEEMFNDFLTGERAQLMAFVKFIKADANLWKALKDKNWAEFARRYNGPAYAQNQYDTKLAAAYKSFS	–	–	–	–	–	–	5.7	<3.7	6.0	<3.7	–	–
